Measurements from publication PMC2848186.

Each substance was assayed against GST-GCN5 (assay: pull-down; GST-GCN5 (1 ug) immobilised on glutathione beads, pre-treated with DNase I and RNase H; incubated with 600 c.p.m. of in vitro translated [35S]-IN proteins in 0.2 mg/ml ethidium bromide; SDS-PAGE and phosphoimaging; bound protein as percent of radiolabeled input).
Chain of GST-GCN5 (Q92830 2-837): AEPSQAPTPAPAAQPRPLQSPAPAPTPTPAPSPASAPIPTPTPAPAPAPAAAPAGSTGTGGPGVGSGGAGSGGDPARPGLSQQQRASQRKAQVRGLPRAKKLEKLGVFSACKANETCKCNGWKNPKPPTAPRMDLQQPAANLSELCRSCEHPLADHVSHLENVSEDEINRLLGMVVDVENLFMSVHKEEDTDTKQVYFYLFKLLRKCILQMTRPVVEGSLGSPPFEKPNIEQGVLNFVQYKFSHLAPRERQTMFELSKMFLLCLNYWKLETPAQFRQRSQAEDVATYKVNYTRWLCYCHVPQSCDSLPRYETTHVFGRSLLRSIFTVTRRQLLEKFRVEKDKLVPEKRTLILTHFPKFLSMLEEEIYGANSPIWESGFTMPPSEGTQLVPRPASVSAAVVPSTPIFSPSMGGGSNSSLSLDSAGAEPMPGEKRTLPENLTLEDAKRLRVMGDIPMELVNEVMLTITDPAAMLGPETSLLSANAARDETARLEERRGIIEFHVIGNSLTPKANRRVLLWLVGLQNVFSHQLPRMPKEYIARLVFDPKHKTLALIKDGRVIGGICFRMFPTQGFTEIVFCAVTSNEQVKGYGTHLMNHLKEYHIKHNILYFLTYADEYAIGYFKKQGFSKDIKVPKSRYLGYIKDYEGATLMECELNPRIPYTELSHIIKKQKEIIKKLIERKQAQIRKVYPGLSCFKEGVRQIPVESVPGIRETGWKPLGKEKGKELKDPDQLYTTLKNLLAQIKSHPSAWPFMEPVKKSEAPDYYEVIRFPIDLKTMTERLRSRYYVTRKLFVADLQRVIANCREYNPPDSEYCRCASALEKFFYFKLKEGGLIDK
In the case of “35S-IN fragment 1-263 (from UniProt P04585 2-264) (domain or fragment)”, the binding efficiency (percent of radiolabeled input bound) was 13%. “35S-IN fragment 1-272 (from UniProt P04585 2-273) (domain or fragment)” was tested, and the binding efficiency (percent of radiolabeled input bound) was 13%. With “35S-IN, full-length HIV-1 integrase, in vitro translated (from UniProt P04585) (enzyme)” the binding efficiency (percent of radiolabeled input bound) was 16%.
